The values below come from publication PMC4072508, “Genome-Wide Prediction and Validation of Peptides That Bind Human Prosurvival Bcl-2 Proteins” (PLoS Computational Biology, 2014).

T1: Mcl-1, Q07820
T1 chain: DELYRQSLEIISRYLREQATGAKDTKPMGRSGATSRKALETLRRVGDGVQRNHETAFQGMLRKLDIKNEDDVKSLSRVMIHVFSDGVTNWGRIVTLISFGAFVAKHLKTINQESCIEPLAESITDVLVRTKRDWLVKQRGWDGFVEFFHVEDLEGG

B1: NXF3 (peptide)
chain: FVENASIAYALKNVSGKIWDEDNEKI
B2: APOL1 (peptide)
chain: EGAKSETAEELKKVAQELEEKLNILN
B3: KLC3 (peptide)
chain: GPEHPAVAATLNNLAVLYGKRGRYRE
B4: ASB16 (peptide)
chain: RGLEQHVALYLEHGADVGLRTSQGET
B5: FAM129C (peptide)
chain: CYRGQLAASVLRQISRELGPQEPTGS
B6: RLN1 (peptide)
chain: LFHLLEFCLLLNQFSRAVAAKWKDDV
B7: UBE3B (peptide)
chain: PESTKRSALCIFKIARKLLFLFRIKE
B8: C9orf100 (peptide)
chain: HQQLTRAARLISETAQRVHTIGQKQK
B9: SMARCAL1 (peptide)
chain: TGKDRLTAGLINIVSFDLLSKLEKQL
B10: GRIK3 (peptide)
chain: DRFEGYCIDLLKELAHILGFSYEIRL
B11: RTDR1 (peptide)
chain: TYEKPQVAEALQRAARIAISVIEFKP
B12: DST (peptide)
chain: LGKRTSSVQALKRSARELIEGSRDDS
B13: GFRA4 (peptide)
chain: RLRSEYVAQCLGRAAQGGCPRARCRR
B14: CYP3A4 (peptide)
chain: SGKLKEMVPIIAQYGDVLVRNLRREA
B15: NWD1 (peptide)
chain: NPKNKTHACYLKELGEQFVVRANHQV
B16: SEMA6B (peptide)
chain: IPGSAVCAFDLTQVAAVFEGRFREQK
B17: C7orf27 (peptide)
chain: QDTEQFVATVLQAASRDLDWEVRAQG
B18: MIB1 (peptide)
chain: FGDEGAVIEVLHRGSADLNARNKRRQ
B19: UTP20 (peptide)
chain: DIARSTLAKIIEDLGVHFLLYVLKEL
B20: SULT6B1 (peptide)
chain: EDLKENLAAGIKQIAEFLGFFLTGEQ
B21: LONRF1 (peptide)
chain: AASDFRTSVVLNHLAEKWFPGQRERA
B22: KLC3 (peptide)
chain: GADHPDVAKQLNNLALLCQNQGKFED
B23: ARSG (peptide)
chain: PEVRKVLADVLQDIANDNISSADYTQ
B24: BBS4 (peptide)
chain: AVLSPQSADNLKQVARSLFLLGKHKA
B25: IPO9 (peptide)
chain: AFVGRLVSTLISKAGRELGENLDQIL
B26: HMHA1 (peptide)
chain: TTLEMEFAKGLQKIAHNCRQSVMQEP
B27: SRGAP1 (peptide)
chain: AEIETEYSRNLEKLAERFMAKTRSTK
B28: GOLGA5 (peptide)
chain: YGKVRKAASSIDQFSIRLGIFLRRYP
B29: APC (peptide)
chain: EDLQQVIASVLRNLSWRADVNSKKTL
B30: TDRD6 (peptide)
chain: GFKTTVYVSHINDLSDFYVQLIEDEA
B31: DNAH8 (peptide)
chain: VLLLSSSVNSLRKAAHEALQDFQKYK
B32: CDT1 (peptide)
chain: ATPPAASPSALKGVSQDLLERIRAKE
B33: TTC30A (peptide)
chain: YYSSRQYASALKHIAEIIERGIRQHP
B34: SRGAP2 (peptide)
chain: AEIEMDYSRNLEKLAERFLAKTRSTK
B35: SLITRK2 (peptide)
chain: RLKVMPFAGVLEHIGGIMEIQLEENP
B36: NCAPD2 (peptide)
chain: EGPEVICAQILQGCAKQALEKLEEKR
B37: RDH13 (peptide)
chain: PSTYLAVAEELADVSGKYFDGLKQKA
B38: RRP12 (peptide)
chain: MKLRNLFTKFIRKFGFELVKRLLPEE
B39: PRKG1 (peptide)
chain: RDSFKHLIGGLDDVSNKAYEDAEAKA
B40: EXOC7 (peptide)
chain: TSMETIGAKALEDFADNIKNDPDKEY
B41: INTS5 (peptide)
chain: VPKIASVVGILGHLASRHGDSIRREL
B42: DNM2 (peptide)
chain: DLVVSELATVIKKCAEKLSSYPRLRE
B43: TBRG4 (peptide)
chain: DLDSNQAAMVLIRLSHLLSEKPEDKG
B44: DYNC2H1 (peptide)
chain: RDHDEFIINLIRGLGGNLNMKSRLEF
B45: LMO2 (peptide)
chain: CLSCDLCGCRLGEVLRRLYYKLGRKL
B46: MTA1 (peptide)
chain: RQAFYLHTTKDTRIARRLCREILRPW
B47: NOL8 (peptide)
chain: KYDPSKYCHNDKKIGEDFSNTIPISS
B48: ANO2 (peptide)
chain: GSIAKKFSAALQKLSSHLQPRVPEHS
B49: PLCB1 (peptide)
chain: REHIKLLIQKLTDVAEECQNNQLKKL
B50: BCAP29 (peptide)
chain: WLVLRRLVTLITQLAKELSNKGVLKT

The first experiment addresses T1, Mcl-1, Q07820. Description: peptide SPOT array, c-Myc-tagged receptor at 1 uM or 100 nM, anti-c-Myc-Cy3.
Turning to B1, the SPOT signal as a fraction of Bim BH3's signal on the same receptor and array amounted to 0.02.
Same read-out and setting: the figure for B2 is 0.01.
With B3, the SPOT signal as a fraction of Bim BH3's signal on the same receptor and array amounted to 0.28.
The same measure, in the same setting: the value for B4 was 0.02; that for B5 was 0.07; that for B6 was 0.02.
Still for that read-out and setting: the figure for B7 is 0.1.
In turn, B8 gave an SPOT signal as a fraction of Bim BH3's signal on the same receptor and array of 0.57.
Same read-out and setting: the value for B9 was 0.02; that for B10 was 0.02.
For the molecule B11, the SPOT signal as a fraction of Bim BH3's signal on the same receptor and array came out at 0.02.
In turn, B12 registered an SPOT signal as a fraction of Bim BH3's signal on the same receptor and array of 0.05.
B13 gave an SPOT signal as a fraction of Bim BH3's signal on the same receptor and array of 0.8.
On the same count and under the same terms, the figure for B14 is 0.07; for B15 it is 0.04.
Still for that read-out and setting: the figure for B16 is 0.02.
The same measure, in the same setting: the value for B17 was 0.02; that for B18 was 0.05.
B19 showed an SPOT signal as a fraction of Bim BH3's signal on the same receptor and array of 0.02.
Regarding B20, the SPOT signal as a fraction of Bim BH3's signal on the same receptor and array was 0.02.
On the same count and under the same terms, the value for B21 was 0.07.
The molecule B22 showed an SPOT signal as a fraction of Bim BH3's signal on the same receptor and array of 0.01.
The same measure, in the same setting: the value for B23 was 0.01.
Same read-out and setting: the figure for B24 is 0.2; for B25 it is 0.03; for B26 it is 0.02.
The same measure, in the same setting: the value for B27 was 0.11.
In turn, B28 gave an SPOT signal as a fraction of Bim BH3's signal on the same receptor and array of 0.29.
For B29, the SPOT signal as a fraction of Bim BH3's signal on the same receptor and array came out at 0.07.
On the same count and under the same terms, the value for B30 was 0.02.
Molecule B31 registered an SPOT signal as a fraction of Bim BH3's signal on the same receptor and array of 0.19.
On the same count and under the same terms, the figure for B32 is 0.03.
Regarding B33, the SPOT signal as a fraction of Bim BH3's signal on the same receptor and array came out at 0.08.
Molecule B34 came in with an SPOT signal as a fraction of Bim BH3's signal on the same receptor and array of 0.08.
For B35, the SPOT signal as a fraction of Bim BH3's signal on the same receptor and array was 0.02.
The same measure, in the same setting: the value for B36 was 0.02; that for B37 was 0.05; that for B38 was 0.14.
Still for that read-out and setting: the value for B39 was 0.01; that for B40 was 0.01; that for B41 was 0.05.
In the case of B42, the SPOT signal as a fraction of Bim BH3's signal on the same receptor and array stood at 0.06.
For B43, the SPOT signal as a fraction of Bim BH3's signal on the same receptor and array stood at 0.02.
The molecule B44 yielded an SPOT signal as a fraction of Bim BH3's signal on the same receptor and array of 0.03.

In the next experiment the target is Bcl-xL, Q07817. The experiment is described as above.
Sequence of Bcl-xL, Q07817 (Q07817 1-209): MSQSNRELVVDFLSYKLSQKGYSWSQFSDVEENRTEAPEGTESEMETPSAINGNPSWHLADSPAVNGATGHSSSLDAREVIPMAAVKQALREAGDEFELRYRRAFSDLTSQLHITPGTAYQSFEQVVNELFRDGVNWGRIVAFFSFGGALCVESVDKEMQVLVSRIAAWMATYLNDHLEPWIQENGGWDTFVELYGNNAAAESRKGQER
Consider B45, for which the SPOT signal as a fraction of Bim BH3's signal on the same receptor and array worked out at 0.54.
Still for that read-out and setting: the value for B46 was 1.26.
Consider B47, for which the SPOT signal as a fraction of Bim BH3's signal on the same receptor and array came out at 0.08.
B48: the SPOT signal as a fraction of Bim BH3's signal on the same receptor and array was found to be 0.11.
In the case of B49, the SPOT signal as a fraction of Bim BH3's signal on the same receptor and array stood at 0.05.
Still for that read-out and setting: the figure for B50 is 0.35.
